Where two headings read alike, the source gives them in different places.
What was measured:
[1] = molecular target: T1, human B-cell activating factor (BAFF) (human, UniProt Q9Y275 134-285)
[2] = molecular target: T1, human B-cell activating factor (BAFF); assay: ELISA; equilibrium binding in solution: human BAFF at 25 pM mixed with antagonist (0.04 nM to 655.36 nM) overnight at room temperature; unbound BAFF detected by ELISA
[3] = molecular target: T1, human B-cell activating factor (BAFF); assay: cell-based or functional assay

T1 sequence (Q9Y275 134-285): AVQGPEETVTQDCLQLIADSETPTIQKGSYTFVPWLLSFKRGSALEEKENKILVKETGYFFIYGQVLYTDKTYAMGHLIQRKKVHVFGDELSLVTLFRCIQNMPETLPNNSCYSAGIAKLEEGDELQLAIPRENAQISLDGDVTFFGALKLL

## BAFF-Trap (variant B101): CRD2 of TACI, CRD of Br3 and Fc domain of human IgG1 (Fc fusion)
[1]
  IC50 of inhibition of Raji cell proliferation induced by BAFF (1 μg/ml) and anti-IgM, CCK-8, 72 h; blocks BAFF from its receptors TACI and Br3 on Raji cells: 50.6 nM
[2]
  Kd: 3.62 nM

## BAFF-Trap variant B102: CRD of Br3, CRD2 of TACI and Fc domain of human IgG1 (Fc fusion)
[1]
  IC50 of inhibition of Raji cell proliferation induced by BAFF (1 μg/ml) and anti-IgM, CCK-8, 72 h: 165 nM

B1: TACI-Fc (Fc fusion, UniProt O14836 1-165, looked up)
chain: MSGLGRSRRGGRSRVDQEERFPQGLWTGVAMRSCPEEQYWDPLLGTCMSCKTICNHQSQRTCAAFCRSLSCRKEQGKFYDHLLRDCISCASICGQHPKQCAYFCENKLRSPVNLPPELRRQRSGEVENNSDNSGRYQGLEHRGSEASPALPGLKLSADQVALVYS
[3]
  IC50 of inhibition of Raji cell proliferation induced by BAFF (1 μg/ml) and anti-IgM, CCK-8, 72 h: 69.5 nM
